T1: TB7.7 (UniProt P9WJ11 P9WJ11:1-81)
T1 sequence: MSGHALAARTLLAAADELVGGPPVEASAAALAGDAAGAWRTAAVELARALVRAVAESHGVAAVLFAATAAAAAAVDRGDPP


How the values were obtained:
[1] = biological target: ESAT6 (early secretory antigenic target 6 kDa) (Mycobacterium tuberculosis H37Rv, UniProt P9WNK7 P9WNK7:1-95); experiment: fluorescence of Cy3-aptamer bound to ESAT6 on magnetic beads; 20 mM Tris, 50 mM NaCl, 5 mM KCl, 5 mM MgCl2, pH 8.0; settings: label: Cy3
Description: 400 pmole of ESAT6 was mixed with 10 μL of magnetic beads, and then incubated in 100 μL of a binding buffer (20 mM Tris, 50 mM NaCl, 5 mM KCl, 5 mM MgCl₂, pH 8.0) for 1 hour. To separate unbound ESAT6, washing was performed twice with a binding buffer. Subsequently, the resulting mixture was incubated together with various concentrations of a Cy3-labeled aptamer, and an unbound aptamer was removed by washing. The amount of Cy3-labeled ssDNA aptamer bound to the magnetic beads with ESAT6 immobilized thereon was measured by fluorescence measurement (1420 Victor Multilabel counter, PerkinElmer, USA) by separating only Cy3-labeled ssDNA bound to ESAT6. As a result, as shown in FIG. 3 and Table 2 below, the Kd value of the DNA aptamer having a EG11(44) base sequence was measured.

[2] = biological target: CFP-10 (UniProt P9WNK5 P9WNK5:1-100); experiment: electrochemical impedance specificity test; 10 pM protein in PBS
CFP-10, sequence (P9WNK5 whole entry, one chain of several): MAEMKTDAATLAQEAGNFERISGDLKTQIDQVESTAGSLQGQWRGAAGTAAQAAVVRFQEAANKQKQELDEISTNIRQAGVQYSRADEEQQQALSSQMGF
Source text: (§1) At this time, each protein was mixed at a concentration of 10 pM with PBS and used for detection.

[3] = biological target: T1, TB7.7; experiment: as above
Source text: as §1

ESAT6 (early secretory antigenic target 6 kDa), sequence (P9WNK7 whole entry, one chain of several): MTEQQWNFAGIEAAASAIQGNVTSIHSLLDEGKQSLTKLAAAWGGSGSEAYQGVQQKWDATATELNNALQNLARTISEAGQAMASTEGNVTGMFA

Binder	Kd [1] [nM]	binding result [2]	binding result [3]
CGAGGTAGCTTACCCGCTTATGTTCACTGTGGGTTGCTGGCTCG (ssDNA) [EG11(44)]	31.4		
CGAGGTAGCTTACCCGCTTATGTTCACTGTGGGTTGCTGGCTCG (ssDNA) [EG11(44) unlabelled]		no binding	no binding

From patent US20200340992, “DNA APTAMER […] BINDING TO ESAT6, AND USE […]” (MD APTUS INC., published 2020)
